Measurements: patent US20180305695, “DNA APTAMER THAT BINDS TO vWF” (TAGCYX BIOTECHNOLOGIES, published 2018)

Biological target: von Willebrand factor A1 domain (Homo sapiens, UniProt P04275 SEQ:1277-1453)
Assay: EMSA; positive control, gel 4 C; substantially no binding with gel at 25-37 C
Conditions: tags: U-Protein Express V003; label: biotin (SPR)
Procedure: The binding ability of the synthesized DNA aptamers was analyzed via gel shift assay. Specifically, the DNA aptamers (100 nM) and the vWF A1 domain (100 nM, V003, U-Protein) were suspended in 20 μl of a reaction solution (1×PBS, 0.005% Nonidet P-40), and incubated at 37° C. for 30 minutes. Thereafter, 25% glycerol containing bromophenol blue was added to be a final concentration of glycerol to 5% therein, the resultant was subjected to 8% nondenaturing polyacrylamide gel electrophoresis at 4° C., and the DNA aptamers bound to the vWF A1 domain were separated from the free DNA aptamers. Thereafter, the DNA aptamers were stained with SYBR Gold (Thermo Fisher Scientific) diluted 1/20,000-fold with the 1×TBE solution and detected by a bioimage analyzer (LAS-4000, Fujifilm Corporation). The percentage of gel shifting was determined by dividing the amount of the complex by the amount of the free form and the complex, each deduced based on a band and expressing the determined value in a percentage figure.
Gel shift assay was carried out in the same manner as in Example 3, except that electrophoresis was carried out at 4° C. and 300 V, 25° C. and 40 W, and 37° C. and 40 W.
And the activity of vWF2-DsAA (o) and vWF2-AADs (p) were decreased in comparison with vWF2-DsDsDs (m).

Binder: GGCGTGCAGTGCCTTCGGCCGTGCGGTGCCTCCGTCACGCC (ssDNA) [ARC1172]
- binding result: binds
